# Article PMC12717039, “Novel mutations in the RECQL4 gene affect its helicase functions, interactions with the BLM helicase and chemotherapeutics-induced cell death”
# Changes are numbered by the printed parent chain.
# T1: RECQL4 427-1116 P532S (Homo sapiens, UniProt O94761 427-1116, P532S)
# T1 sequence: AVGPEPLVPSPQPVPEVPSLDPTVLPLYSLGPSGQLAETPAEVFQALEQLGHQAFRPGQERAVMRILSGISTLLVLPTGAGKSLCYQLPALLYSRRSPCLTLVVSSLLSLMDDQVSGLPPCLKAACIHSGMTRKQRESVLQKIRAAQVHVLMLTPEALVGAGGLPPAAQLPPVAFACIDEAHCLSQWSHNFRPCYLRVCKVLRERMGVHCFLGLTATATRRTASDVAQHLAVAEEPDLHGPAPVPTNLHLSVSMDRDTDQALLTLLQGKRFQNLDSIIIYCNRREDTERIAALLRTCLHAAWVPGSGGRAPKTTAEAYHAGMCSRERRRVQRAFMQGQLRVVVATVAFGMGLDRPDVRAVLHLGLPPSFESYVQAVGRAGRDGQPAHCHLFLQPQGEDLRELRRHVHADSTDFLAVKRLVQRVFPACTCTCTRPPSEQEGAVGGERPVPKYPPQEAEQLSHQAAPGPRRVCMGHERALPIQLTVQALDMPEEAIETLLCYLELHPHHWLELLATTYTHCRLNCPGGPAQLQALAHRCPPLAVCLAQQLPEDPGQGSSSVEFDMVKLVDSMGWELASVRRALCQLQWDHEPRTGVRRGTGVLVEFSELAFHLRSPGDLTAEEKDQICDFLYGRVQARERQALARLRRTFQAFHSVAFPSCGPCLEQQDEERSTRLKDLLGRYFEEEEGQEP
# T2: RECQL4 427-1116 WT (Homo sapiens, UniProt O94761 427-1116)
# T2 sequence: T1 sequence with S106P
# B1: OH-Cy5/CQ dsDNA with 3' ss overhang (MST) (dsDNA)
# DNA 1: CCATTCCACCCTCTATTTTTTTTTTTTTTT
# DNA 2: TAGAGGGTGGAATGG
# What was measured:
# RECQL4 427-1116 P532S = target: T1, RECQL4 427-1116 P532S; assay: MST; 5 mM Mg2+; no ATP mentioned; Kd only in figure; Buffer D: 10 mM HEPES pH 7.5, 50 mM NaCl, 5 mM MgCl2, 2 mM DTT (EMSA, 100 nM Cy3-DNA, 6% native PAGE); MST with 10 nM Cy5-DNA, buffer not restated; temperature; settings: protein: recombinant; tags: GST tag removed by TEV; label: 5' Cy5 on strand 1; 3' overhang 15 nt on strand 1, 15 bp duplex
# RECQL4 427-1116 WT = target: T2, RECQL4 427-1116 WT; assay: as above; settings: protein: recombinant; tags: GST tag removed by TEV; label: 5' Cy5 on strand 1; 3' overhang 15 nt on strand 1, 15 bp duplex
binder,measurement,setting,value
B1,binding result,RECQL4 427-1116 P532S,binds
same,binding result,RECQL4 427-1116 WT,binds
